Laboratory results reported in US5637476.

Molecular target: T1, SfiI modification methylase (M.SfiI) (Streptomyces fimbriatus) (UniProt O52513)
T1 sequence: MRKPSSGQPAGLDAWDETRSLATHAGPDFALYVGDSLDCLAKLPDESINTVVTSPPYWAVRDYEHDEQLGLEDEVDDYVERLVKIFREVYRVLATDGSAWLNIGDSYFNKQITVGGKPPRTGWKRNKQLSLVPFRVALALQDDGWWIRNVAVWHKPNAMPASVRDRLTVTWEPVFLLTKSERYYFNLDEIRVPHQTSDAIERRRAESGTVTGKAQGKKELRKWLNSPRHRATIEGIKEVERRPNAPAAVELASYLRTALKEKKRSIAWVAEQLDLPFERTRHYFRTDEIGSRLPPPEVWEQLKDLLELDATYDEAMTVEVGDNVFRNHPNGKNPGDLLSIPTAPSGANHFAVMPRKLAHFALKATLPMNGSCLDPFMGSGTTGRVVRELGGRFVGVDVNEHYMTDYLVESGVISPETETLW
Assay: inhibition
Conditions: protection from SfiI cleavage; 10 mM EDTA, 0.1 mM AdoMet, 37 C; 0.3M and 0.5M KCl fractions

T4 DNA
activity: 2500 units/ml
